Measured values from paper PMC12775124, “CUL4A-DDB1-DCAF10 is an N-recognin for N-terminally acetylated Src kinases” (Nature Communications, 2026).

T1: GST-DCAF10 (UniProt Q5QP82 1-559)
T1 construct: DCAF10, full length; the UniProt entry is printed for the AlphaFold 3 model of the same protein; cloning and purification are in the Supplementary Methods; also called purified full-length GST-DCAF10; source: purified
T1 sequence (looked up): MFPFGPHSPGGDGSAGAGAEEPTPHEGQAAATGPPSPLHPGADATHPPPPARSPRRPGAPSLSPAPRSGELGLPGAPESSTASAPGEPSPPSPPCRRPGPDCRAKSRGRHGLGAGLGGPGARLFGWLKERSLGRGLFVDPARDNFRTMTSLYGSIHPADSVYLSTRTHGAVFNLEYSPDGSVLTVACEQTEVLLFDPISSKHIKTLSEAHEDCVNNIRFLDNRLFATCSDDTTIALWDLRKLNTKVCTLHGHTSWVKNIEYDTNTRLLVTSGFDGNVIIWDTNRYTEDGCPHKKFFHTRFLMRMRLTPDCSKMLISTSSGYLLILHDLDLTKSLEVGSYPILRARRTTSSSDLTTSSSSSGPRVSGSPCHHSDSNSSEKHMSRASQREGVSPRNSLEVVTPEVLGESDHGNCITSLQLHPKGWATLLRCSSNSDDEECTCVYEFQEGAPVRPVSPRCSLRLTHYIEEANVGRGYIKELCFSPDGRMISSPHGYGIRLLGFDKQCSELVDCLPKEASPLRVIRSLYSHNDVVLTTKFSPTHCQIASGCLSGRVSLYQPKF

T2: Ac-Lyn^G2A peptide (human, UniProt P07948 2-11, G2A)
T2 construct: Lyn, N-terminal 10-mer without the initiator Met, G2A; Lys3 spacer that carries the C-terminal biotin; also called Ac-Ala peptide; source: synthetic peptide
T2 peptide: Ac-ACIKSKGKDSKKK-biotin

B1: Nt-acetylated Lyn peptide (peptide)
peptide: Ac-GCIKSKGKDSKKK-biotin
notes: Lyn, N-terminal 10-mer without the initiator Met; Lys3 spacer that carries the C-terminal biotin; also called Nt-Ac Lyn; Ac-Lyn; source: synthetic peptide
B2: Nt-acetylated Src peptide (peptide)
peptide: Ac-GSNKSKPKDAKKK-biotin
notes: Src, N-terminal 10-mer without the initiator Met; Lys3 spacer that carries the C-terminal biotin; also called Nt-Ac Src; Ac-Src; source: synthetic peptide

Assays:
GST-DCAF10 = molecular target: T1, GST-DCAF10; test: pull-down; Nt-peptides bound to streptavidin beads incubated with purified GST-DCAF10 or GST alone; Western blots against GST, DCAF10 and streptavidin; n = 3; details: both partners purified
[1] = molecular target: B2; test: affinity purification with mass spectrometry; biotinylated 10-mer Nt-peptides on magnetic streptavidin beads incubated with HeLa lysate; retained proteins digested on bead and quantified label-free by LC-MS (DIA); pairwise comparison of two peptides; n = 3; details: one partner purified
Ac-Lyn^G2A peptide = molecular target: T2, Ac-Lyn^G2A peptide; test: as above; details: one partner purified
[2] = molecular target: B1; test: as above; details: one partner purified

Row | binding result (GST-DCAF10) | log2 fold change (Nt-Ac against Nt-free Src peptide, Fig. 1c) [1] [log2] | fold lower than the Ac-Gly peptide (Ac-Lyn^WT) (Ac-Lyn^G2A peptide) [fold] | fold stronger than Ac-THOC7 [2] [fold] | Binder
1 | binds | – | – | – | B1
2 | binds | – | – | – | Ac-GCVQCKDKEAKKK-biotin (cysteine pairing not given here, Fyn, N-terminal 10-mer without the initiator Met; Lys3 spacer that carries the C-terminal biotin; also called Nt-Ac Fyn; Ac-Fyn; source: synthetic peptide) [Nt-acetylated Fyn peptide]
3 | – | ~5 | 15 | ~57 | DDB1- and CUL4A-associated factor 10 (natural protein, human (endogenous in HeLa and DLD-1), UniProt Q5QP82 1-559, looked up, DCAF10, endogenous protein of human cell lysates; also called DCAF10; WDR32; source: endogenous, HeLa lysate; endogenous, DLD-1 Lyn KO Flp-In T-REx cell lysate) MFPFGPHSPGGDGSAGAGAEEPTPHEGQAAATGPPSPLHPGADATHPPPPARSPRRPGAPSLSPAPRSGELGLPGAPESSTASAPGEPSPPSPPCRRPGPDCRAKSRGRHGLGAGLGGPGARLFGWLKERSLGRGLFVDPARDNFRTMTSLYGSIHPADSVYLSTRTHGAVFNLEYSPDGSVLTVACEQTEVLLFDPISSKHIKTLSEAHEDCVNNIRFLDNRLFATCSDDTTIALWDLRKLNTKVCTLHGHTSWVKNIEYDTNTRLLVTSGFDGNVIIWDTNRYTEDGCPHKKFFHTRFLMRMRLTPDCSKMLISTSSGYLLILHDLDLTKSLEVGSYPILRARRTTSSSDLTTSSSSSGPRVSGSPCHHSDSNSSEKHMSRASQREGVSPRNSLEVVTPEVLGESDHGNCITSLQLHPKGWATLLRCSSNSDDEECTCVYEFQEGAPVRPVSPRCSLRLTHYIEEANVGRGYIKELCFSPDGRMISSPHGYGIRLLGFDKQCSELVDCLPKEASPLRVIRSLYSHNDVVLTTKFSPTHCQIASGCLSGRVSLYQPKF
4 | binds | – | – | – | B2
